Results on one molecule are retold here after PMC2875725.

This data set deals with HCV NS5B RNA-dependent RNA polymerase (Hepatitis C virus (strain ), UniProt Q9WMX2 2421-3010). Nature of the data set: protein chip with QD fluorescence.
Sequence of HCV NS5B RNA-dependent RNA polymerase (Q9WMX2 2421-3010): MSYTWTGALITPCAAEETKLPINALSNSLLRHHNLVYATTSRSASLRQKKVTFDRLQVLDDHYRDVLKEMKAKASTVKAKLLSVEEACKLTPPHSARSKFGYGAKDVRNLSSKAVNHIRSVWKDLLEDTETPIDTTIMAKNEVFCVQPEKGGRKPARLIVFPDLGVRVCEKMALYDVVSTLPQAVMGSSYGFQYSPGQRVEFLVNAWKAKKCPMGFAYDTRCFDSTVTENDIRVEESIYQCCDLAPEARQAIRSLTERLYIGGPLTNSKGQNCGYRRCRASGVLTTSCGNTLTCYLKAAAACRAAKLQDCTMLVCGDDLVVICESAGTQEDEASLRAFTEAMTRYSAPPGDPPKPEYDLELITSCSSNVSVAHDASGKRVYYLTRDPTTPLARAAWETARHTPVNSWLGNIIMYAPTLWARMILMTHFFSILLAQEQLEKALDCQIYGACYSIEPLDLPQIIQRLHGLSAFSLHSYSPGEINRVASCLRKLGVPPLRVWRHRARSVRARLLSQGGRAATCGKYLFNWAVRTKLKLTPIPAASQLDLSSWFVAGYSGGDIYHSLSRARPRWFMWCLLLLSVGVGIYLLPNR

In the case of CCCCACAUUCUCACCCCCUC (ssRNA, 5'-amine) [NS5Bmut RNA oligonucleotide], the binding result is given as “no binding”.
